Test results: US20190106502A1

Molecular target: CD20 (B-lymphocyte antigen CD20) (human) (UniProt P11836)
Assay: cell-based or functional assay

CD20 (B-lymphocyte antigen CD20) (human), sequence (P11836 whole entry): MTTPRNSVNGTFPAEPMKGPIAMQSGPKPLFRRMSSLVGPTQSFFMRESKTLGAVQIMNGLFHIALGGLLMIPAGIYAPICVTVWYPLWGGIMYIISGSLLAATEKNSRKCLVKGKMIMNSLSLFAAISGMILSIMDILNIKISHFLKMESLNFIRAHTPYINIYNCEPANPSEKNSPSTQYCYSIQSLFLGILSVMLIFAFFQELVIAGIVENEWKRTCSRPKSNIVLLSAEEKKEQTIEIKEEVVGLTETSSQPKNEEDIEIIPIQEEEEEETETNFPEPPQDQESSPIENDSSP

Row | Substance | EC50 (ng/ml) values of direct cell death induction using Z-138 (% total AnnV positive cells)
1 | GA101-P151F P329G L234A L235A (antibody) | 133 ng/mL
2 | GA101-P151F hin del (on GA101 P329G L234A L235A backbone) (antibody) | 68.4 ng/mL
3 | GA101-V11F P151F (on GA101 P329G L234A L235A backbone) (antibody) | 112 ng/mL
4 | GA101-V11F P151F hinge del (on GA101 P329G L234A L235A backbone) (antibody) | 171 ng/mL
5 | GA101-V11F P329G L234A L235A (antibody) | 131 ng/mL
6 | GA101-hinge del P329G L234A L235A (antibody) | 155 ng/mL
